The values below come from patent US20150166647A1 (VLST, published 2015).

One assay addresses T1, HCC-4.
T1 construct: also called HCC-4/CCL16; CCL16
T1 chemokine: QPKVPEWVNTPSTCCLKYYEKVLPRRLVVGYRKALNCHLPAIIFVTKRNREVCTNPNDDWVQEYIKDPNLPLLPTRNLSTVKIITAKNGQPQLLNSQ
The assay can be described thus: MSD electrochemiluminescence assay; chemokine coated at 1 µg/mL, 18P7E as unquantitated hybridoma supernatant; background = BSA.

The target in another assay is T2, ELC.
T2 construct: also called ELC/MIP-3β/CCL19; CCL19
T2 chemokine: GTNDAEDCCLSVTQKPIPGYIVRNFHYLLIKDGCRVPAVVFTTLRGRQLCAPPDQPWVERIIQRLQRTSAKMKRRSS
The description is as above.

A further assay concerns the target T3, I-309.
T3 construct: also called I-309/CCL1; CCL1
T3 chemokine: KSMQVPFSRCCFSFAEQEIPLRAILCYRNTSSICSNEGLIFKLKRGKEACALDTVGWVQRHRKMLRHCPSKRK
Described as above.

The target of another assay is T4, human PARC/CCL18 (human, UniProt P55774 21-89).
T4 sequence: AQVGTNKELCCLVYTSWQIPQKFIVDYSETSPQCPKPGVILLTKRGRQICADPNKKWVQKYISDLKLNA
Described as above.

The next assay addresses T5, human HCC-2/MIP-1δ/CCL15 (human, UniProt Q16663 46-113).
T5 sequence: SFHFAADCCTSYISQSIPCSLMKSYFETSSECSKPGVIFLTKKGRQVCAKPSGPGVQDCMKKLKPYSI
The description is as above.

The next assay concerns the target T6, MCP-3.
T6 construct: also called MCP-3/CCL7; CCL7
The assay is described as above.

A further assay addresses T7, MDC.
T7 construct: also called MDC/CCL22; CCL22
T7 chemokine: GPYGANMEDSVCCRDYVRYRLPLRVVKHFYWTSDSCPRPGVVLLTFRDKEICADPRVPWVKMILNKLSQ
Described as above.

For another assay, the target named is T8, SDF.
T8 construct: also called SDF-1/CXCL12; CXCL12
The assay is described as above.

The next assay has as its target T9, human HCC-1/CCL14/CCL14a (human, UniProt Q16627 28-93).
T9 sequence: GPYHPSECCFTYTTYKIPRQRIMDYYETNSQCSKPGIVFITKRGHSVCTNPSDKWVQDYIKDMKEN
The assay is described as above.

In the next assay the target is T10, human MPIF-1/CCL23 (human, UniProt P55773 46-120).
T10 sequence: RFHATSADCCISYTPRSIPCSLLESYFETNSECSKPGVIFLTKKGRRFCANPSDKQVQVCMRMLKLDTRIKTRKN
The assay is described as above.

A further assay concerns the target T11, Fractalkine.
T11 construct: also called Fractalkine/CX3CL1; CX3CL1
T11 chemokine: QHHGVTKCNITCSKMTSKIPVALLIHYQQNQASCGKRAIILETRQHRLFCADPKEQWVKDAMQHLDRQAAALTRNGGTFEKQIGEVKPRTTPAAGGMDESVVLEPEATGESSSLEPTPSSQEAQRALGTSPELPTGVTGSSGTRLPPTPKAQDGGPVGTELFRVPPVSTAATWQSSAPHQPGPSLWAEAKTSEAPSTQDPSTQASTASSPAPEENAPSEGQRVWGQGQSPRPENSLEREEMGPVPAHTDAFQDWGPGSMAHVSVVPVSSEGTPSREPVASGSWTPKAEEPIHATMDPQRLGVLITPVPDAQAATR
The assay is described as above.

The next assay deals with T12, IL-8.
T12 construct: also called IL-8/CXCL8; CXCL8
The assay is described as above.

For another assay, the target named is T13, human MCP-1/CCL2 (human, UniProt P13500 24-99).
T13 construct: also called Biotin-MCP1
The assay is described as above.

In a further assay the target is T14, Eotaxin.
T14 construct: also called Eotaxin/CCL11; CCL11
The assay is described as above.

A further assay has as its target T15, MCP-4.
T15 construct: also called MCP-4/CCL13; CCL13
The assay is described as above.

The next assay has as its target T16, MCP-2.
T16 construct: also called MCP-2/CCL8; CCL8
T16 chemokine: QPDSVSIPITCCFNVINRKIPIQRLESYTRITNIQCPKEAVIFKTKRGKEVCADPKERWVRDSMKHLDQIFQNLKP
Described as above.

The target of the next assay is T17, mouse MIP-1α/CCL3 (mouse, UniProt P10855 24-92).
T17 construct: also called muMIP-1α
T17 sequence: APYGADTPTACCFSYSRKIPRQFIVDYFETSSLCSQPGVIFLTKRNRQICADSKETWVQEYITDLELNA
The assay can be described thus: MSD electrochemiluminescence, chemokine coated at 1 µg/mL.

For the next assay, the target named is T18, mouse MIP-1β/CCL4 (mouse, UniProt P14097 24-92).
T18 construct: also called muMIP-1β
T18 sequence: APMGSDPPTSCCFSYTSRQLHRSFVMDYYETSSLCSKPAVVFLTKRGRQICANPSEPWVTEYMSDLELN
The description is as above.

A further assay has as its target T19, mouse RANTES/CCL5 (mouse, UniProt P30882 24-91).
T19 construct: also called muRANTES
Described as above.

T13 sequence (P13500 24-99 limits assumed): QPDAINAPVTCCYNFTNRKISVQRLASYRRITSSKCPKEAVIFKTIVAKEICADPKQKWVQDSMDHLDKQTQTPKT
T15 sequence (chemokine, as listed by the source): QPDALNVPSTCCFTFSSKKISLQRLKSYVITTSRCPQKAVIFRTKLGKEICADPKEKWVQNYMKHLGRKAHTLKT
T14 sequence (chemokine, as listed by the source): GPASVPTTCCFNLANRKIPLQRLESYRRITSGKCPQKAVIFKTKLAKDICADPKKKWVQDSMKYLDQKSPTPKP
T8 sequence (chemokine, as listed by the source): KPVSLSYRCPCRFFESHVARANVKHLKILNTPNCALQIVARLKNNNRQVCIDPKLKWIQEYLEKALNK
T6 sequence (chemokine, as listed by the source): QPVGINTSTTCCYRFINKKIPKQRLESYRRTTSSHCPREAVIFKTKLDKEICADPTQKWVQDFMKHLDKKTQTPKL
T12 sequence (chemokine, as listed by the source): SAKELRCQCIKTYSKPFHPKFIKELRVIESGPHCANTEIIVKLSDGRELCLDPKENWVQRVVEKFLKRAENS
T19 sequence (P30882 24-91 limits assumed): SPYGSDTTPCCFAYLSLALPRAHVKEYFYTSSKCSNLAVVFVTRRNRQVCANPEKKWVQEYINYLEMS

B1: monoclonal antibody 18P7E (antibody, V domains shown)
VH: QVQLKESGPGLVAPSQSLSITCTVSGFSLTGYGIHWVRQPPGKGLEWLGVIWPGGGTNYNSALMSRLNISKDNSKSQVFLKMNSLQTDDTAMYYCARGPLITTEVSMDYWGQGTSVTVSS
VL: QAVVTQESALTTSPGETVTLTCRSNTGAVTTSNYANWVQEKPDHLFTGLIGGTNNRAPGVPARFSGSLIGDKAALTITGAQTEDEAIYFCALWYSNHWVFGGGTKLTVLG
notes: also called MAb 18P7E
On to B1, for which the binding result with HCC-4, with ELC, in the assay with I-309, with human PARC/CCL18, in the assay with human HCC-2/MIP-1δ/CCL15 and with MCP-3 was “no binding (tested: unquantitated hybridoma supernatant)” throughout. Further, the binding result with MDC, with SDF, with human HCC-1/CCL14/CCL14a, with human MPIF-1/CCL23, with Fractalkine and in the assay with IL-8 was “no binding (tested: unquantitated hybridoma supernatant)” each time. Moreover, the binding result in the assay with human MCP-1/CCL2, with Eotaxin, with MCP-4, with MCP-2, in the assay with mouse MIP-1α/CCL3 and in the assay with mouse MIP-1β/CCL4 was “no binding (tested: unquantitated hybridoma supernatant)” in each case. The binding result with mouse RANTES/CCL5 is “no binding (tested: unquantitated hybridoma supernatant)”.
